The experiment addresses CRBN/DDB1 complex (human | , UniProt Q96SW2 1-442; Q16531 1-1140, CoraFluor-1 label (on the complex, chain not told)). The experiment can be described thus: FRET; TR-FRET competitive displacement of thal-FITC. (In general: In TR-FRET formats the signal depends on donor and acceptor labels being close together.)

B1: UROD with C-terminal cyclic imide (recombinant UROD incubated with PCMT1) (natural protein)
chain: MEANGLGPQGFPELKNDTFLRAAWGEETDYTPVWCMRQAGRYLPEFRETRAAQDFFSTCRSPEACCELTLQPLRRFPLDAAIIFSDILVVPQALGMEVTMVPGKGPSFPEPLREEQDLERLRDPEVVASELGYVFQAITLTRQRLAGRVPLIGFAGAPWTLMTYMVEGGGSSTMAQAKRWLYQRPQASHQLLRILTDALVPYLVGQVVAGAQALQLFESHAGHLGPQLFNKFALPYIRDVAKQVKARLREAGLAPVPMIIFAKDGHFALEELAQAGYEVVGLDWTVAPKKARECVGKTVTLQGNLDPCALYASEEEIGQLVKQMLDDFGPHRYIANLGHGLYPDMDPEHVGAFVDAVHKHSRLLRQN
modifications: C-terminal cyclic imide on the C-terminal asparagine (N367), confirmed by mass spectrometry
As usually defined, the Kd is the constant that tells how readily two partners part at equilibrium. Lower therefore signals tighter binding. As to B1, the dissociation constant Kd came out at 1500 nM.

(Values after doi:10.1101/2025.03.24.645063 (2025).)
